Laboratory results taken from paper PMC3115021, “Dynamics of Cdk1 Substrate Specificity during the Cell Cycle” (Molecular Cell, 2011).

B1: FIR1: purified yeast protein tested as Cdk1 substrate (protein, UniProt P40020 1-876, looked up)
Factor interacting with REF2: MSLPVTPVKSKVCSTLSIQHEMDHDQCRDVLCPRENLLAINRTNNIESVAIPRQRSSKNKKPHEHTQSQVRFSIPDPNEISQDSPLKIVFPKSGNETERRMSTSSLLMNSHGHLVDMHSKILVDVPKEVWKFHHNRRKKCESRHRKTRSDVRSNTSSSGKEPNHSRSKSLQSIIVDTMNTYRATEVETSINENTSNISQVSPLNLSFDRPPPLTPEKNLYLTPESPLNRYHLPVPLEISLPPYLSPQNKDKKRSSLVYDGDGYSQFQEGNTSSSTESSLEQPSSSYSDEDDSIPYAHHDVSFELNNADADKLLGIDENANVNLKIQRRNLKNPQHIKSKTDRECEEKNTEKNVSLKILSTPNKLIDIPDLEHMKSPPSTGLNGTLKFFQQFEPSEEPTSPTRQVNPESLDKLDMSFKFPSSTTNNNVDKVHENRNSGDTNNEDFLKVDTSPVNQSFESRRQMLIDLQKSPTNNNPRIHKHRRSRSVHNIDDISLNFEATSTPPAPTSAPSIPVEHSNPCTSIEIPKRSPLRFTSSPKTSDIPPEAQSPKNGSFLQEISVPSIQIIPDESISHTREPSPSLIECPEDENEAFSTEVADHSIAIISETKSVPSIEPFKPLSSFNSFGQEIQNKEPTPLNQTPTDLIGKQRNCVNPHSIPFSVLSSNSQSSQSGSSKSSYNSEFSSNTAITDTTSQPSVTINRSTLEHNFIEEKRSIKNLGHGPPSQKNNYSFPRNKNTPSNRHDLDFNTIYEKRDGKMVEVILLDEDEDVGLKNNDISRTRVCHAQKAKNEQQKKRLSHCNEILGMCDKTADDAKRIIYQLVNEKHKFSEKGQQTKPKKSRVLPPLPFPLYDEKGNSLIPNKYQSSIHNDIPSHRKLK
B2: NDD1: component of the transcription factor complex controlling G2/M-specific genes, tested as Cdk1 substrate (protein, UniProt Q08887 1-554, looked up)
Nuclear division defective …: MDRDISYQQNYTSTGATATSSRQPSTDNNADTNFLKVMSEFKYNFNSPLPTTTQFPTPYSSNQYQQTQDHFANTDAHNSSSNESSLVENSILPHHQQIQQQQQQQQQQQQQQQALGSLVPPAVTRTDTSETLDDINVQPSSVLQFGNSLPSEFLVASPEQFKEFLLDSPSTNFNFFHKTPAKTPLRFVTDSNGAQQSTTENPGQQQNVFSNVDLNNLLKSNGKTPSSSCTGAFSRTPLSKIDMNLMFNQPLPTSPSKRFSSLSLTPYGRKILNDVGTPYAKALISSNSALVDFQKARKDITTNATSIGLENANNILQRTPLRSNNKKLFIKTPQDTINSTSTLTKDNENKQDIYGSSPTTIQLNSSITKSISKLDNSRIPLLASRSDNILDSNVDDQLFDLGLTRLPLSPTPNCNSLHSTTTGTSALQIPELPKMGSFRSDTGINPISSSNTVSFKSKSGNNNSKGRIKKNGKKPSKFQIIVANIDQFNQDTSSSSLSSSLNASSSAGNSNSNVTKKRASKLKRSQSLLSDSGSKSQARKSCNSKSNGNLFNSQ

Legend:
Test in all cases: Quantitative phosphorylation assay of T33-Sic1ΔC constructs and recombinant substrates
Format in all cases: biochemical
Settings in all cases: Table S2; purified protein substrate; relative values, not divided by [S]
Cln2-Cdk1 = molecular target: T1, Cln2-Cdk1 (Saccharomyces cerevisiae, UniProt P00546+P20438)
T1 construct: We purified the four cyclin-Cdk1 complexes from yeast; made in house; host or cells: S. cerevisiae strain DMY305 (galactose-induced); Cks1 from bacteria
Procedure: (§1) For the quantitative phosphorylation assays of T33-Sic1ΔC constructs and recombinant substrates, substrate concentrations were kept in the range of 0.5–2 μM (in the linear [S] versus v0 range, several-fold below the estimated KM value), and initial velocity conditions were defined as an initial substrate turnover of up to 10% of the total turnover. For the steady-state peptide kinetics of the Histone peptide PKTPKKAKKL, a similar assay composition was used as for protein substrates, and phosphocellulose paper was used for the quantification of the phosphorylated substrate. […]
(§2) similar substrate specificity as the Cln2-Cdk1 version purified using a TAP-tag. N-terminally 6His-tagged recombinant T33-Sic1ΔC constructs and substrates were cloned into the pET28a vector and purified by standard cobalt affinity chromatography and elution with 200 mM imidazole. 6His-Fin1 was purified as described previously (Woodbury and Morgan, 2007). Substrates cloned into the pGEX-4T-1 were purified on glutathione agarose columns using 5 mM reduced glutathione for elution. Cks1 was purified as described previously (Reynard et al., 2000). The optimal working concentration for purified Cks1 was taken as 500 nM based on optimization performed for cyclin-Cdk1 preparations and T33-Sic1ΔC as a substrate.
(§3) For the quantitative phosphorylation assays of T33-Sic1ΔC constructs and recombinant substrates, substrate concentrations were kept in the range of 0.5-2 μM (in the linear [S] vs v0 range, several-fold below the estimated KM value), and the initial velocity conditions were defined as an initial substrate turnover ranging up to 10% of the total turnover. The latter was estimated by a long-term incubation with excess amounts of cyclin-Cdk1 and 32P-γ-ATP in the standard reaction mixture given below. About 1-10 nM of purified kinase complex was used, reaction aliquots were taken at two or more time points, and the reaction was stopped by SDS-PAGE sample buffer. The relative kcat/KM values for the substrates were calculated as the ratio of v0/[S], which was determined from at least two independent experiments. The basal composition of the assay mixture contained 50 mM Hepes, pH 7.4, 100 mM NaCl, 0.1% NP-40, 20 mM imidazole, 0.1 mg/ml 2HA peptide, 2% glycerol, 2 mM EGTA, 0.2 mg/ml BSA, […], and 500 μM ATP (with added 32P-γ-ATP (Perkin Elmer)).
(§4) About 1-10 nM of purified kinase complex was used, reaction aliquots were taken at two or more time points, and the reaction was stopped by SDS-PAGE sample buffer. For the steady-state peptide kinetics of the Histone peptide PKTPKKAKKL, a similar assay composition was used as for protein substrates and the standard phosphocellulose method was applied for the quantification of the phosphorylated substrate (Loog and Morgan, 2005). Synthetic peptides as competitor agents were used in 4 mM final concentrations. […]

Clb2-Cdk1 = molecular target: T2, Clb2-Cdk1 (Saccharomyces cerevisiae, UniProt P00546+P24869)
T2 construct: We purified the four cyclin-Cdk1 complexes from yeast; made in house; host or cells: S. cerevisiae strain DOM0077 (gal-CLB2-TAP, sic1 deleted); Cks1 from bacteria
Procedure: as §1, §2, §3, §4

Clb3-Cdk1 = molecular target: T3, Clb3-Cdk1 (Saccharomyces cerevisiae, UniProt P00546+P24870)
T3 construct: We purified the four cyclin-Cdk1 complexes from yeast; made in house; host or cells: S. cerevisiae strain DOM0957 (gal-CLB3-TAP, sic1 deleted); Cks1 from bacteria
Procedure: as §1, §2, §3, §4

Clb5-Cdk1 = molecular target: T4, Clb5-Cdk1 (Saccharomyces cerevisiae, UniProt P00546+P30283)
T4 construct: We purified the four cyclin-Cdk1 complexes from yeast; made in house; host or cells: S. cerevisiae strain DOM0076 (gal-CLB5-TAP, sic1 deleted); Cks1 from bacteria
Procedure: as §1, §2, §3, §4

Clb5hpm-Cdk1 = molecular target: T5, Clb5hpm-Cdk1 (Saccharomyces cerevisiae, UniProt P00546)
T5 construct: made in house; host or cells: S. cerevisiae strain DOM0963 (gal-CLB5hpm-TAP, sic1 deleted); Cks1 from bacteria
Procedure: (§5) For the quantitative phosphorylation assays of T33-Sic1ΔC constructs and recombinant substrates, substrate concentrations were kept in the range of 0.5–2 μM (in the linear [S] versus v0 range, several-fold below the estimated KM value), and initial velocity conditions were defined as an initial substrate turnover of up to 10% of the total turnover. For the steady-state peptide kinetics of the Histone peptide PKTPKKAKKL, a similar assay composition was used as for protein substrates, and phosphocellulose paper was used for the quantification of the phosphorylated substrate.
(§6) Supplemental Experimental Procedures
(§7) Plasmid constructs and yeast strains
(§8) For tandem affinity purification (TAP) of cyclin-Cdk1 complexes, the cyclin genes were cloned into the 2 micron vector pRSAB1234 containing a GAL1 promoter and the C-terminal TAP-tag. To purify different 6His-T33-Sic1ΔC forms for kinase assays, the C-terminally truncated fragment of Sic1 (with a stop codon inserted after amino acid 215) was cloned into the NheI/BamHI site of the bacterial expression vector pET28a (Invitrogen). Mutagenesis of cyclins or substrates was performed using single-stranded pRSAB1234 or pET28a vector constructs as templates. The triple mutants in the hydrophobic patch (hpm) of Clb5 and Clb2 were described previously (Loog and Morgan, 2005), and the hpm of Clb3 (Phe-201, Leu-205 and Trp-208 mutated to alanines) was designed according to sequence homology with other B-type cyclins. In T33-Sic1ΔC constructs, the other Cdk sites bearing the consensus motif S/T-P were mutated to Ala-Ala in order to prevent any possible (pseudo)substrate competition. The other Cdk substrates were cloned as full-length forms into bacterial expression vectors pET28a or pGEX-4T-1. Cdh1 was purified using the baculovirus system and was a kind gift from Monica Rodrigo-Brenni (UCSF). […]
The […]
(§9) pRSAB1234 analogously to the cyclin-Cdk1 complexes. For C-terminal tagging of cyclin genes in their chromosomal loci, the Pringle method was applied (Longtine et al., 1998). Lists of plasmid […]
(§10) The TAP method was applied for purification of cyclin-Cdk1 complexes and Swe1 as described previously for Clb5-TAP-Cdk1 and Clb2-TAP-Cdk1 (Puig et al., 2001; Ubersax et al., 2003). […]
as §2, with “tagged” for “similar substrate specificity as the Cln2-Cdk1 version purified using a TAP-tag. N-terminally 6His-tagged”
as §3
(§11) About 1-10 nM of purified kinase complex was used, reaction aliquots were taken at two or more […]

Clb3hpm-Cdk1 = molecular target: T6, Clb3hpm-Cdk1 (Saccharomyces cerevisiae, UniProt P00546+P24870)
T6 construct: made in house; host or cells: S. cerevisiae strain MK0168 (gal-CLB3hpm-TAP, sic1 deleted); Cks1 from bacteria
Procedure: as §5, §6, §7, §8
The […]
as §9, §10
as §2, with “tagged” for “similar substrate specificity as the Cln2-Cdk1 version purified using a TAP-tag. N-terminally 6His-tagged”
as §3, §11

Clb2hpm-Cdk1 = molecular target: T7, Clb2hpm-Cdk1 (Saccharomyces cerevisiae, UniProt P00546)
T7 construct: made in house; host or cells: S. cerevisiae strain DOM0964 (gal-CLB2hpm-TAP, sic1 deleted); Cks1 from bacteria
Procedure: as §5, §6, §7, §8
The […]
as §9, §10
as §2, with “tagged” for “similar substrate specificity as the Cln2-Cdk1 version purified using a TAP-tag. N-terminally 6His-tagged”
as §3, §11

T2 sequence (P00546 2-298 limits assumed): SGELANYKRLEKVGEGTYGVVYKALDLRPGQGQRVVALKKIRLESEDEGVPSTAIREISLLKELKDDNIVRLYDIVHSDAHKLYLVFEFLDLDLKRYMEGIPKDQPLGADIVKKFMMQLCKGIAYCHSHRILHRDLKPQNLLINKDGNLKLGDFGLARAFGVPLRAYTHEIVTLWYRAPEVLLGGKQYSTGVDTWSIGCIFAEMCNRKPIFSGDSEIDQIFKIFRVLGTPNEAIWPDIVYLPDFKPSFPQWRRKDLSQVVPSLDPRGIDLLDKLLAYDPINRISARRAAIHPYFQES
T2 sequence (P24869 2-491 partner limits assumed): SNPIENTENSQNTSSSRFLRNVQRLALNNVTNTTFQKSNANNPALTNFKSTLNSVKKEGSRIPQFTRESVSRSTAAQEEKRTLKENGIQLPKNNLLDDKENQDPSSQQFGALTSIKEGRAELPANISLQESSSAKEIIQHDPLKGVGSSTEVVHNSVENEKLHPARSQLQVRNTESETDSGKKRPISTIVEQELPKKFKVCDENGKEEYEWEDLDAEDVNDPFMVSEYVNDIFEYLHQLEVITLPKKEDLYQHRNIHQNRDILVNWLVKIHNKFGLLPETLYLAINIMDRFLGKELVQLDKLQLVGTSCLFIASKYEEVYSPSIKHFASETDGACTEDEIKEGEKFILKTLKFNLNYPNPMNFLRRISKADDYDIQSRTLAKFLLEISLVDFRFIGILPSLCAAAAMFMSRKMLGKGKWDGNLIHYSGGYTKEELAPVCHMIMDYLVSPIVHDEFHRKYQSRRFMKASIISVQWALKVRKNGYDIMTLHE
T2 sequence (P20486 whole entry partner): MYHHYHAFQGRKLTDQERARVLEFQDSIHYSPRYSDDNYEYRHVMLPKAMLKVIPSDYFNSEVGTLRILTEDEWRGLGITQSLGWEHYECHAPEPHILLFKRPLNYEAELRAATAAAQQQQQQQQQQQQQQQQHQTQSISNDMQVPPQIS
T5 sequence (P00546 2-298 limits assumed): as the sequence (P00546 2-298 limits assumed) above
T4 sequence (P00546 2-298 limits assumed): as above
T4 sequence (P30283 whole entry partner): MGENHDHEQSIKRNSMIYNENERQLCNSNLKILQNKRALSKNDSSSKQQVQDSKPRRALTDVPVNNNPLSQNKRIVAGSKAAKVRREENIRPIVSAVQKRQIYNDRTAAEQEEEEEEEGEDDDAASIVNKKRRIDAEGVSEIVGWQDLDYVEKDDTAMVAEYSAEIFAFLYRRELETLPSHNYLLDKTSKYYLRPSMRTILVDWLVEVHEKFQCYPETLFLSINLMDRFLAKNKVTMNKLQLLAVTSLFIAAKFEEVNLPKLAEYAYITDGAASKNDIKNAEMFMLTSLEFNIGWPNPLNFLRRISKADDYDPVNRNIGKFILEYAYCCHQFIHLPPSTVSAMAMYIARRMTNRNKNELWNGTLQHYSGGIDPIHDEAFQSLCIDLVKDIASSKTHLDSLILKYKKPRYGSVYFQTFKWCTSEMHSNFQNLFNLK
T4 sequence (P20486 whole entry partner): as the sequence (P20486 whole entry partner) above
T3 sequence (P00546 2-298 limits assumed): as the sequence (P00546 2-298 limits assumed) above
T3 sequence (P24870 whole entry partner): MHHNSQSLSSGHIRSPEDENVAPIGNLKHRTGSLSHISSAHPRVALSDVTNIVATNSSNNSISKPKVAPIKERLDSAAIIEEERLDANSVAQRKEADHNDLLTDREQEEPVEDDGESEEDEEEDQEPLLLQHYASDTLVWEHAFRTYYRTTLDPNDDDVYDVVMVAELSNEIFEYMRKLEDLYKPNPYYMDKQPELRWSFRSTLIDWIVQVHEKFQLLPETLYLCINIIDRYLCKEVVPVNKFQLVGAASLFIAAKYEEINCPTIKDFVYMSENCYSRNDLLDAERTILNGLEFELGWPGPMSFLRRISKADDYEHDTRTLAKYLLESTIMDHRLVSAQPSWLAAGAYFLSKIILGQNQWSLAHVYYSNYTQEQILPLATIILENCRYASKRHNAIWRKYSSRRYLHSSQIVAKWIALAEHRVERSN
T3 sequence (P20486 whole entry partner): as the sequence (P20486 whole entry partner) above
T7 sequence (P00546 2-298 limits assumed): as the sequence (P00546 2-298 limits assumed) above
T1 sequence (P00546 2-298 limits assumed): as above
T1 sequence (P20438 whole entry partner): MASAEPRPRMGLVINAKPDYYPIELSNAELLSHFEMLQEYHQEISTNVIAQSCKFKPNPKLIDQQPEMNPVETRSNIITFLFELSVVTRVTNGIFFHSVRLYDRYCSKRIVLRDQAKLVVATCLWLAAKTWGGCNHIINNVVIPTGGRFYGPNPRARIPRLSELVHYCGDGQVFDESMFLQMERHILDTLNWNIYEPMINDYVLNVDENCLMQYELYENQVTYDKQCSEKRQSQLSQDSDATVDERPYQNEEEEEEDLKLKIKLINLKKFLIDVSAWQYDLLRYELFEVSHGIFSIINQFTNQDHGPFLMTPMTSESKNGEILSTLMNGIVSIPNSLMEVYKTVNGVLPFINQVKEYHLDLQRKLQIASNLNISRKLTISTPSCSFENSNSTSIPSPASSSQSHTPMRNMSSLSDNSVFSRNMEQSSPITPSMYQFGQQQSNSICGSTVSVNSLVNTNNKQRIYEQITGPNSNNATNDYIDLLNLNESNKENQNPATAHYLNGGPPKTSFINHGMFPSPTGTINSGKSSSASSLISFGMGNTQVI
T1 sequence (P20486 whole entry partner): as the sequence (P20486 whole entry partner) above

Molecule | kcat/KM, Cln2 (Cln2-Cdk1) [relative units] | kcat/KM, Clb2 (Clb2-Cdk1) [relative units] | kcat/KM, Clb3 (Clb3-Cdk1) [relative units] | kcat/KM, Clb5 (Clb5-Cdk1) [relative units] | kcat/KM, Clb5hpm (Clb5hpm-Cdk1) [relative units] | kcat/KM, Clb3hpm (Clb3hpm-Cdk1) [relative units] | kcat/KM, Clb2hpm (Clb2hpm-Cdk1) [relative units]
ASH1: transcription factor, purified protein tested as Cdk1 substrate | 0.422 | 0.462 | 0.697 | 0.111 | 0.052 | 0.134 | 0.389
Histone H1 [reference compound] | 1.394 | 4.900 | 2.237 | 0.605 | 0.427 | 1.957 | 4.287
B1 | 0.042 | 0.836 | 0.223 | 0.032 | 0.008 | 0.017 | 0.111
B2 | 0.143 | 3.129 | 2.121 | 0.388 | 0.096 | 0.222 | 1.108
